# B1: CDC14A (parent)
# chain: GPHPKSKIENGYPLHAPEAYFPYF
# Variants of: B1
# Experiment: protein stability index of a GFP-peptide fusion (GPS, HEK-293T) (PSI 1-6); higher = more stable
# Details: c terminus: a fixed tail appended
# 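Further: lentivirally expressed fusions sorted by FACS into six bins by GFP to DsRed ratio, PSI derived from sequencing read proportions per bin multiplied by bin number.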
row,Variant,protein stability index
1,GPHPKSPIENGYPLHAPEAYFPYF [K7P],2.72
2,GPHPKSQIENGYPLHAPEAYFPYF [K7Q],1.96
3,GPHPKSRIENGYPLHAPEAYFPYF [K7R],2.43
4,GPHPKSSIENGYPLHAPEAYFPYF [K7S],2.31
5,GPHPKSTIENGYPLHAPEAYFPYF [K7T],2.43
6,GPHPKSVIENGYPLHAPEAYFPYF [K7V],2.59
7,GPHPKSWIENGYPLHAPEAYFPYF [K7W],1.57
8,GPHPKSYIENGYPLHAPEAYFPYF [K7Y],1.84
9,GPHPKSKAENGYPLHAPEAYFPYF [I8A],2.54
10,GPHPKSKCENGYPLHAPEAYFPYF [I8C],2.45
11,GPHPKSKDENGYPLHAPEAYFPYF [I8D],3.34
12,GPHPKSKEENGYPLHAPEAYFPYF [I8E],3.29
13,GPHPKSKFENGYPLHAPEAYFPYF [I8F],2.23
14,GPHPKSKGENGYPLHAPEAYFPYF [I8G],2.28
15,GPHPKSKHENGYPLHAPEAYFPYF [I8H],2.37
16,GPHPKSKKENGYPLHAPEAYFPYF [I8K],2.53
17,GPHPKSKLENGYPLHAPEAYFPYF [I8L],2.03
18,GPHPKSKMENGYPLHAPEAYFPYF [I8M],2.09
19,GPHPKSKNENGYPLHAPEAYFPYF [I8N],2.98
20,GPHPKSKPENGYPLHAPEAYFPYF [I8P],2.56
21,GPHPKSKQENGYPLHAPEAYFPYF [I8Q],2.7
22,GPHPKSKRENGYPLHAPEAYFPYF [I8R],2.75
23,GPHPKSKSENGYPLHAPEAYFPYF [I8S],2.29
24,GPHPKSKTENGYPLHAPEAYFPYF [I8T],2.48

row,Variant,protein stability index
1,GPHPKSKVENGYPLHAPEAYFPYF [I8V],2.48
2,GPHPKSKWENGYPLHAPEAYFPYF [I8W],1.77
3,GPHPKSKYENGYPLHAPEAYFPYF [I8Y],1.88
4,GPHPKSKIANGYPLHAPEAYFPYF [E9A],1.92
5,GPHPKSKICNGYPLHAPEAYFPYF [E9C],2.09
6,GPHPKSKIDNGYPLHAPEAYFPYF [E9D],1.96
7,GPHPKSKIFNGYPLHAPEAYFPYF [E9F],1.77
8,GPHPKSKIGNGYPLHAPEAYFPYF [E9G],2.31
9,GPHPKSKIHNGYPLHAPEAYFPYF [E9H],2.29
10,GPHPKSKIINGYPLHAPEAYFPYF [E9I],2.2
11,GPHPKSKIKNGYPLHAPEAYFPYF [E9K],1.44
12,GPHPKSKILNGYPLHAPEAYFPYF [E9L],1.76
13,GPHPKSKIMNGYPLHAPEAYFPYF [E9M],1.58
14,GPHPKSKINNGYPLHAPEAYFPYF [E9N],1.91
15,GPHPKSKIPNGYPLHAPEAYFPYF [E9P],1.69
16,GPHPKSKIQNGYPLHAPEAYFPYF [E9Q],2.02
17,GPHPKSKIRNGYPLHAPEAYFPYF [E9R],1.6
18,GPHPKSKISNGYPLHAPEAYFPYF [E9S],2.21
19,GPHPKSKITNGYPLHAPEAYFPYF [E9T],2.22
20,GPHPKSKIVNGYPLHAPEAYFPYF [E9V],1.81
21,GPHPKSKIWNGYPLHAPEAYFPYF [E9W],1.77
22,GPHPKSKIYNGYPLHAPEAYFPYF [E9Y],1.64
23,GPHPKSKIEAGYPLHAPEAYFPYF [N10A],2.51
24,GPHPKSKIECGYPLHAPEAYFPYF [N10C],2.05

row,Variant,protein stability index
1,GPHPKSKIEDGYPLHAPEAYFPYF [N10D],1.96
2,GPHPKSKIEEGYPLHAPEAYFPYF [N10E],2.29
3,GPHPKSKIEFGYPLHAPEAYFPYF [N10F],2.51
4,GPHPKSKIEGGYPLHAPEAYFPYF [N10G],2.18
5,GPHPKSKIEHGYPLHAPEAYFPYF [N10H],2.57
6,GPHPKSKIEIGYPLHAPEAYFPYF [N10I],1.63
7,GPHPKSKIEKGYPLHAPEAYFPYF [N10K],2.65
8,GPHPKSKIELGYPLHAPEAYFPYF [N10L],2.19
9,GPHPKSKIEMGYPLHAPEAYFPYF [N10M],2.31
10,GPHPKSKIEPGYPLHAPEAYFPYF [N10P],2.52
11,GPHPKSKIEQGYPLHAPEAYFPYF [N10Q],2.99
12,GPHPKSKIERGYPLHAPEAYFPYF [N10R],1.55
13,GPHPKSKIESGYPLHAPEAYFPYF [N10S],2.97
14,GPHPKSKIETGYPLHAPEAYFPYF [N10T],1.82
15,GPHPKSKIEVGYPLHAPEAYFPYF [N10V],2.06
16,GPHPKSKIEWGYPLHAPEAYFPYF [N10W],1.89
17,GPHPKSKIEYGYPLHAPEAYFPYF [N10Y],1.79
18,GPHPKSKIENAYPLHAPEAYFPYF [G11A],2.41
19,GPHPKSKIENCYPLHAPEAYFPYF [G11C],1.73
20,GPHPKSKIENDYPLHAPEAYFPYF [G11D],2.85
21,GPHPKSKIENEYPLHAPEAYFPYF [G11E],2.52
22,GPHPKSKIENFYPLHAPEAYFPYF [G11F],1.72
23,GPHPKSKIENHYPLHAPEAYFPYF [G11H],2.17
24,GPHPKSKIENIYPLHAPEAYFPYF [G11I],1.64

row,Variant,protein stability index
1,GPHPKSKIENKYPLHAPEAYFPYF [G11K],2.44
2,GPHPKSKIENLYPLHAPEAYFPYF [G11L],2.56
3,GPHPKSKIENMYPLHAPEAYFPYF [G11M],2.09
4,GPHPKSKIENNYPLHAPEAYFPYF [G11N],2.07
5,GPHPKSKIENPYPLHAPEAYFPYF [G11P],3.76
6,GPHPKSKIENQYPLHAPEAYFPYF [G11Q],2.31
7,GPHPKSKIENRYPLHAPEAYFPYF [G11R],2.5
8,GPHPKSKIENSYPLHAPEAYFPYF [G11S],2.09
9,GPHPKSKIENTYPLHAPEAYFPYF [G11T],1.75
10,GPHPKSKIENVYPLHAPEAYFPYF [G11V],2.03
11,GPHPKSKIENWYPLHAPEAYFPYF [G11W],1.55
12,GPHPKSKIENYYPLHAPEAYFPYF [G11Y],2.12
13,GPHPKSKIENGAPLHAPEAYFPYF [Y12A],2.99
14,GPHPKSKIENGCPLHAPEAYFPYF [Y12C],2.42
15,GPHPKSKIENGDPLHAPEAYFPYF [Y12D],3.24
16,GPHPKSKIENGEPLHAPEAYFPYF [Y12E],3.56
17,GPHPKSKIENGFPLHAPEAYFPYF [Y12F],1.78
18,GPHPKSKIENGGPLHAPEAYFPYF [Y12G],2.67
19,GPHPKSKIENGHPLHAPEAYFPYF [Y12H],2.99
20,GPHPKSKIENGIPLHAPEAYFPYF [Y12I],2.82
21,GPHPKSKIENGKPLHAPEAYFPYF [Y12K],2.69
22,GPHPKSKIENGLPLHAPEAYFPYF [Y12L],2.46
